Test results reported in patent US20230203161A1 (TENEOBIO, published 2023).

Target: T1, human Prostate Specific Membrane Antigen (PSMA) (human, UniProt Q04609 1-750)
T1 construct: whole, on cells; also called Glutamate Carboxypeptidase II; FOLH1
Assay: flow cytometry on LNCaP cells
Description: Briefly, 50,000 target cells were stained with a dilution series of purified UniAbs™ for 30 minutes at 4° C. Following incubation, the cells were washed twice with flow cytometry buffer (1×PBS, 1% BSA, 0.1% NaN₃) and stained with goat F(ab′)₂ anti-human IgG conjugated to R-phycoerythrin (PE) (Southern Biotech, cat. #2042-09) to detect cell-bound antibodies. After a 20-minute incubation at 4° C., the cells were washed twice with flow cytometry buffer and the mean fluorescence intensity (MFI) was measured by flow cytometry. The MFI of cells stained with secondary antibody alone were used for determination of background signal and binding of each antibody was converted to fold over background. […] In some experiments EC50 values were calculated using GraphPad Prism 7.
Column 1 indicates the clone ID of the HCAb. Column 2 indicates binding to LNCaP cells measured as fold over the background MFI signal.

T1 sequence (Q04609 whole entry): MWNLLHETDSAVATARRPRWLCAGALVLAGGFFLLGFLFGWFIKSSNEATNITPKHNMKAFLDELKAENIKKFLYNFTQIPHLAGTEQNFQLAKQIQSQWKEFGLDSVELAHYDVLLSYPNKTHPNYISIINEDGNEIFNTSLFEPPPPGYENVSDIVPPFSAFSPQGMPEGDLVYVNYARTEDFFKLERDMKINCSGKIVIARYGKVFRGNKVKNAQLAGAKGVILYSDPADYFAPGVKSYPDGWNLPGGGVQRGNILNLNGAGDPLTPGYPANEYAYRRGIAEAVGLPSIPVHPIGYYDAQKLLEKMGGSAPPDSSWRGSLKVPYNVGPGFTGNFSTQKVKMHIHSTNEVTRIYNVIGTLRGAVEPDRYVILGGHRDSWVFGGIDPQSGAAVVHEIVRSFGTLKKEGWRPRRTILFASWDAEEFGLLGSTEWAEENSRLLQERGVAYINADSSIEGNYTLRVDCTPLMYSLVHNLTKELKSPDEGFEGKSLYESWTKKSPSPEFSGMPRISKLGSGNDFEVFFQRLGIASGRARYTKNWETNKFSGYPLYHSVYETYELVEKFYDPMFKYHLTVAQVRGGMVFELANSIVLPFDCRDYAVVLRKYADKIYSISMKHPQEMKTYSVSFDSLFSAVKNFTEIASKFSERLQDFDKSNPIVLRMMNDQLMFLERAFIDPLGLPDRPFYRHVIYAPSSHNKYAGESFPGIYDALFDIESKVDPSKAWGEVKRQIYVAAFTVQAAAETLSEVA

Row | fold over background MFI [fold over background] | Binder
1 | 282 | anti-PSMA heavy-chain antibody (HCAb) clone ID 325920 (antibody, V domains shown, Heavy chain-only antibody (UniAb)) VH: QLQLQESGPGLVKPSETLSLTCTVSGGSISSSSYYWGWIRQPPGKGLEWIGSIDYSGYTYYNPSLQSRVTISVDTSKNQFSLKLSSVTAADTAVYNCARHKAATADFDYRGQGTLVTVSS
2 | 243 | anti-PSMA heavy-chain antibody (HCAb) clone ID 346165 (antibody, V domains shown, Heavy chain-only antibody (UniAb)) VH: QLQLQESGPGLVKPSETLSLTCTVSGGSISSSSYYWGWIRQPPGKGLEWIGSVDYSGYTYYNPSLQSRVTISVDTSKNQFSLKLSSVTAADTAVYNCARHKAATADFDYRGQGTLVTVSS
3 | 25 | anti-PSMA heavy-chain antibody (HCAb) clone ID 326109 (antibody, V domains shown, Heavy chain-only antibody (UniAb)) VH: QLQLQESGPGLVKPSETLSLTCTVSGGSISSNSYYWGWIRQSPGKGLEWLGSIYDSGSTHYNPSLKSRVIISGDTSKNQFSLKLSSVTAADTAVYYCARHKAATADFDYRGQGTLVTVSS
4 | 264 | anti-PSMA heavy-chain antibody (HCAb) clone ID 346181 (antibody, V domains shown, Heavy chain-only antibody (UniAb)) VH: QLQLQESGPGLVKPSETLSLTCTVSGGSISSSNYFWGWIRQSPGKGLEWIGSIDYSGYTYYNPSLKSRVTISVDTSKNQFSLKLSSVTAADTAVYNCARHKAATADFDYRGQGTLVTVSS
5 | 47 | anti-PSMA heavy-chain antibody (HCAb) clone ID 345480 (antibody, V domains shown, Heavy chain-only antibody (UniAb)) VH: QVQLVESGGGVVQPGRSLRLSCAASGFSFSSYGMHWVRQAPGKGLEWVAVIWYDGSNRYYADSVKGRFTISRDNSKNTLYLQMNSLRAEDTAVYYCAREPRIGYYYESSGYYSLDYRGQGTLVTVSS
6 | 210 | anti-PSMA heavy-chain antibody (HCAb) clone ID 325867 (antibody, V domains shown, Heavy chain-only antibody (UniAb)) VH: QVQLVESGGGVVQPGRSLRLSCAASGFSFRSYGMHWVRQAPGKGLEWVAVIWYDGSNKYYADSVKGRFTISRDYSKNTLYLQMNSLRAEDTAVYYCAREPRIGYYYESSGYDSLDYRGQGTLVTVSS
7 | 138 | anti-PSMA heavy-chain antibody (HCAb) clone ID 326027 (antibody, V domains shown, Heavy chain-only antibody (UniAb)) VH: QVQLVESGGGVVQPGRSLRLSCAASGFSFRSYGMHWVRQAPGKGLEWVAVIWYDGSNKYYADSVKGRFTISRDNSKNTLYLQMNSLRAEDTAVYYCAREPRIGYYYDSSGYDSLDYRGQGTLVTVSS
8 | 102 | anti-PSMA heavy-chain antibody (HCAb) clone ID 345461 (antibody, V domains shown, Heavy chain-only antibody (UniAb)) VH: QVQLVESGGGVVQPGRSLRLSCAASGFSFTSYGMHWVRQAPGKGLEGVAVIWYDGSNRYYADSVKGRFTISRDNSKNTLYLQMNSLRAEDTAVYYCAREPRIGYYYESSGYYSLDYRGQGTLVTVSS
9 | 68 | anti-PSMA heavy-chain antibody (HCAb) clone ID 345463 (antibody, V domains shown, Heavy chain-only antibody (UniAb)) VH: QVQLVESGGGVVQPGRSLRLSCAASGFIFRSYGMHWVRQAPGKGPEWVAVIWYDGSNKYYADSVKGRFTISRDNSKNTLYLQMNSLRAEDTAVYYCAREPRIGYYYESSGYYSLDYRGQGTLVTVSS
10 | 129 | anti-PSMA heavy-chain antibody (HCAb) clone ID 326087 (antibody, V domains shown, Heavy chain-only antibody (UniAb)) VH: QVQLVESGGGVVQPGRSLRLSCAASGFIFRSYGMHWVRQAPGKGPEWVAVIWYDGSNKYYADSVKGRFTISRDNSKNTLYLQMNSLRAEDTAVYYCAREPRIGYYYDSSGYDSLDYRGQGTLVTVSS
11 | 71 | anti-PSMA heavy-chain antibody (HCAb) clone ID 345485 (antibody, V domains shown, Heavy chain-only antibody (UniAb)) VH: QVQLVESGGGVVQPGRSLRLSCAASGFSFRSYGMHWVRQAPGKGLEWVAVIWYDGSNKYYADSVKGRFTISRDNSKNTMYLQMNSLRAEDTAVYYCAREPRIGYYYESSGYYSLDYRGQGTLVTVSS
12 | 112 | anti-PSMA heavy-chain antibody (HCAb) clone ID 345497 (antibody, V domains shown, Heavy chain-only antibody (UniAb)) VH: QVQLVESGGGVVQPGRSLRLSCAASGFSFSRYGMHWVRQAPGKGLEGVAVIWYDGSNRYYADSVKGRFTISRDNSKNTLYLQMNSLRAEDTAVYYCAREPRIGYYYESSGYYSLDYRGQGTLVTVSS
13 | 80 | anti-PSMA heavy-chain antibody (HCAb) clone ID 345490 (antibody, V domains shown, Heavy chain-only antibody (UniAb)) VH: QVQLVESGGGLVKPGGSLRLSCAASGFSFSSYGMHWVRQAPGKGLEGVAVIWYDGSNRYYADSVKGRFTISRDNSKNTLYLQMNSLRAEDTAVYYCAREPRIGYYYESSGYYSLDYRGQGTLVTVSS
14 | 22 | anti-PSMA heavy-chain antibody (HCAb) clone ID 345421 (antibody, V domains shown, Heavy chain-only antibody (UniAb)) VH: QVQLVESVGGVVQPGRSLRLSCAASGFSFSSYGMHWVRQAPGKGLEGVAVIWYDGSNRYYADSVKGRFTISRDNSKNTLYLQMNSLRAEDTAVYYCAREPRIGYYYESSGYYSLDYRGQGTLVTVSS
15 | 200 | anti-PSMA heavy-chain antibody (HCAb) clone ID 325742 (antibody, V domains shown, Heavy chain-only antibody (UniAb)) VH: QVQLVESGGGVVQPGRSLRLSCAASGFSFSSYGMHWVRQAPGKGLEWVAVIWYDGSNKYYADSVKGRFTISRDYSKNTLYLQMNSLRAEDTAVYYCAREPRIGYYYESSGYDSLDYRGQGTLVTVSS
16 | 37 | anti-PSMA heavy-chain antibody (HCAb) clone ID 345509 (antibody, V domains shown, Heavy chain-only antibody (UniAb)) VH: QVQLVESGGGLVQPGGSLRLSCAASGFSFSSYGMHWVRQAPGKGLEGVAVIWYDGSNKYYADSVKGRFTISRDNSKNTMYLQMNSLRAEDTAVYYCAREPRIGYYYESSGYYSLDYRGQGTLVTVSS
17 | 84 | anti-PSMA heavy-chain antibody (HCAb) clone ID 345443 (antibody, V domains shown, Heavy chain-only antibody (UniAb)) VH: QVQLVESGGGVVQPGRSLRLSCAASGFSFSSYGMHWVRQAPGKGLEGVAVIWYDGSNRYYADSVKGRFTISRDNSKNTLFLQMNSLRAEDTAVYYCAREPRIGYYYESSGYYSLDYRGQGTLVTVSS
18 | 38 | anti-PSMA heavy-chain antibody (HCAb) clone ID 326116 (antibody, V domains shown, Heavy chain-only antibody (UniAb)) VH: QVQLVESGGGVVQPGRSLRLSCAASGFSFSRYGMHWVRQAPGKGLEGVAVISYDGSNKYYADSVKGRFTISRDYSKNTLYLQMNSLRAEDTAVYYCAREPRIGYYYDSSGYDSLDYRGQGTLVTVSS
19 | 80 | anti-PSMA heavy-chain antibody (HCAb) clone ID 345482 (antibody, V domains shown, Heavy chain-only antibody (UniAb)) VH: QVQLVESGGGVVQPGRSLRLSCAASGFSFSSYGMHWVRQAPGKGLEGVAVIWYDGSNRYYADSVKGRFTISRDSSKNTLYLQMNSLRAEDTAVYYCAREPRIGYYYESSGYYSLDYRGQGTLVTVSS
20 | 87 | anti-PSMA heavy-chain antibody (HCAb) clone ID 345436 (antibody, V domains shown, Heavy chain-only antibody (UniAb)) VH: QVQLVESGGGVVQPGRSLRLSCAASGFSFSRYGMHWVRQAPGKGLEGVAVIWYDGSNKYYADSVKGRFTISRDNSKNTLYLQMNSLRAEDTAVYYCAREPRIGYYYESSGYYSLDYRGQGTLVTVSS
21 | 125 | anti-PSMA heavy-chain antibody (HCAb) clone ID 326084 (antibody, V domains shown, Heavy chain-only antibody (UniAb)) VH: QVQLVESGGGVVQPGRSLRLSCAASGFSFSSYGMHWVRQAPGKGLEGVAVIWYDGSNRYYADSVKGRFTISRDNSKNTLYLQMNSLRAEDTAVYYCAREPRIGYYYDSSGYYSLDYRGQGTLVTVSS
22 | 59 | anti-PSMA heavy-chain antibody (HCAb) clone ID 345505 (antibody, V domains shown, Heavy chain-only antibody (UniAb)) VH: QVQLVESGGGVVQPGRSLRLSCAASGFTFISYGMHWVRQAPGKGLEGVAVIWYDGSNRYYADSVKGRFTISRDNSKNTLYLQMNSLRAEDTAVYYCAREPRIGYYYESSGYYSLDYRGQGTLVTVSS
23 | 13 | anti-PSMA heavy-chain antibody (HCAb) clone ID 345438 (antibody, V domains shown, Heavy chain-only antibody (UniAb)) VH: QVQLVESGGGVVQPGRSLRLSCAASGFSFSSYGMHWVRQAPGKGPEWVAVIWYDGSNKYYADSVKGRFTISRDNSKNTLYLQMNSLRAEDTAVYYCAREPRIGYYYESSGYYSLDYRGQGTLVTVSS
24 | 101 | anti-PSMA heavy-chain antibody (HCAb) clone ID 345493 (antibody, V domains shown, Heavy chain-only antibody (UniAb)) VH: QVQLVESGGGVVQPGRSLRLSCAASGFSFSRYGMHWVRQAPGKGLEWVAVIWYDGSNRYYADSVKGRFTISRDNSKNTLYLQMNSLRAEDTAVYYCAREPRIGYYYESSGYYSLDYRGQGTLVTVSS
25 | 109 | anti-PSMA heavy-chain antibody (HCAb) clone ID 326029 (antibody, V domains shown, Heavy chain-only antibody (UniAb)) VH: QVQLVESGGGVVQPGRSLRLSCAASGFSFSRYGMHWVRQAPGKGLEWVAVISYDGSNKYYADSVKGRFTISRDNSKNTLYLQMNSLRAEDTAVYYCAREPRVGYYYETSGYYSLDYRGQGTLVTVSS
26 | 117 | anti-PSMA heavy-chain antibody (HCAb) clone ID 326028 (antibody, V domains shown, Heavy chain-only antibody (UniAb)) VH: QVQLVESGGGVVQPGRSLRLSCAASGFSFRSYGMHWVRQAPGKGLEWVAVISYDGSNKYYADSVKGRFTISRDYSKNTLYLQMNSLRAEDTAVYYCAREPRIGYYYDSSGYDSLDYRGQGTLVTVSS
27 | 14 | anti-PSMA heavy-chain antibody (HCAb) clone ID 345447 (antibody, V domains shown, Heavy chain-only antibody (UniAb)) VH: QVQLVESGGGVVQPGRSLRLSCAASGFSFSSYGMHWVRQAPGKGLEGVAVISYDGSNRYYADSVKGRFTISRDNSKNTLYLQMNSLRAEDTAVYYCAREPRIGYYYESSGYYSLDYRGQGTLVTVSS
28 | 55 | anti-PSMA heavy-chain antibody (HCAb) clone ID 345508 (antibody, V domains shown, Heavy chain-only antibody (UniAb)) VH: QVQLVESGGGVVQPGRSLRLSCAASGFSFSSYGMHWVRQAPGKGPEWVAVIWYDGSNRYYADSVKGRFTISRDNSKNTLYLQMNSLRAEDTAVYYCAREPRIGYYYESSGYYSLDYRGQGTLVTVSS
29 | 163 | anti-PSMA heavy-chain antibody (HCAb) clone ID 325836 (antibody, V domains shown, Heavy chain-only antibody (UniAb)) VH: QVQLVESGGGVVQPGRSLRLSCAASGFSFRSYGMHWVRQAPGKGLEWVAVIWYDGSNKYYADSVKGRFTISRDYSKNTLYLQMNSLRAEDTAVYYCAREPRIGYYYDSSGYDSLDYRGQGTLVTVSS
30 | 23 | anti-PSMA heavy-chain antibody (HCAb) clone ID 345444 (antibody, V domains shown, Heavy chain-only antibody (UniAb)) VH: QVQLVESGGGVVQPGRSLRLSCAASGFTFSSYGMHWVRQAPGKGLEGVAVIWYDGSNRYYADSVKGRFTISRDNSKNTLYLQMNSLRAEDTAVYYCAREPRIGYYYESSGYYSLDYRGQGTLVTVSS
